Reference: patent US6972178B1, “Drug screening using a proline-rich nuclear receptor co-regulatory protein/nuclear receptor co-expression system” (City of Hope, priority 1999, dated 2005)

Legend:
[1] = target: T1, SF1 (Bos taurus, UniProt Q04752); assay: Mammalian two-hybrid assay in SK-BR-3 cells (CAT reporter); assay type: cell-based, bovine; design: expressed in transfected cells; host or cells: SK-BR-3; conditions: pM-SF1 + pVP16-PNRC + pG5CAT
Method: The Mammalian MatchMaker two-hybrid assay system (Clontech) was used to confirm the interaction between PNRC and SF1 that was identified in the yeast assays. Because the assays are performed in mammalian cells, proteins are more likely to be in their native conformations, and the results are therefore more likely to represent biologically significant interactions. SK-BR-3 breast cancer cells were cotransfected with three expression plasmids, including pM-SF1 for Gal4 DNA-DB/SF1 fusion protein, pVP16-PNRC for VP16AD-PNRC fusion protein, and a third vector, pG5CAT, to provide the Gal4 DNA-binding site, a promoter, and the CAT reporter gene.
A set of plasmids, named pM-SF1, pVP16-PNRC, pVP16-PNRC270-327, and pVP16-PNRC278-300, for mammalian two-hybrid assays were prepared as follows: SF1 cDNA fragment was excised from pGBT9-SF1 and inserted in frame into Gal4 DNA-binding domain vector pM (Clontech) through an EcoRI site. PCR was used to generate PNRC full length coding region as well as the above mentioned deleted fragments with BclI at both ends. The PCR products were digested with BclI and inserted in proper reading frame into a pVP16 activation domain vector (Clontech) at a BamHI site. Mammalian two-hybrid assays in SK-BR-3 cells were performed according to the procedures described in the Clontech protocol (PT3002-1).

[2] = target: T1, SF1; assay: Yeast two-hybrid assay (HIS3 / β-galactosidase reporter); assay type: cell-based, bovine; design: The coding region for the wild type bovine SF1 was first subcloned into a yeast expression vector, pGBT9; expressed in transfected cells; host or cells: yeast (Y187, or Y187 x CG1945 diploids); conditions: no ligand
Method: The protein-protein interactions between the full-length PNRC or PNRC fragments and SF1, ERRα1, and several other nuclear receptors were analyzed by yeast two-hybrid assays. The yeast two-hybrid assay was used to test if PNRC also interacts with other members of the nuclear receptor superfamily. pGBT9-ERRα-1 yeast expression plasmid was prepared by inserting the PCR-amplified ERRA-1 coding region into pGBT9 through an EcoRI site. To construct the plasmid pGBT9-ER274-595, the coding sequence from amino acids 274 to 595 (LBD) of ERα was amplified by PCR with the sense primer 5′-[…]-3′ (SEQ ID NO:1) and antisense primer 5′-[…]-3′ (SEQ ID NO:2) and cloned into the EcoRI/,SalI site of the pGBT9 yeast expression plasmid. pSG5-GRIP1 and several yeast expression plasmids coding for fusion proteins of Gal4-DBD and HBDs of AR, GR, PR, TR, RAR, and RXR in pGBT9 vector were kindly provided by Dr. Michael R. Stallcup (University of Southern California, Los Angeles, Calif.) (Voegel et al., 1996; Hong et al., 1996; Ding et al., 1998). The yeast mating approach was used in yeast two-hybrid assays to study protein-protein interactions as described in Clontech's protocol. Briefly, pGBT9 (DNA-BD vector only), pGBT9/target plasnmids for SF1, ERRα1, and other HBDs of nuclear receptors, and DNA-BD/control plasmids (as negative control) were introduced into the reporter strain Y187, and the AD vector alone or wild type PNRC and its deleted fragments-containing pACT2 derivatives were used to transform yeast strain CG1945. The yeast mating was performed by picking one colony from each type and growing both colonies in liquid YPD medium with or without a proper ligand at the following concentrations: 100 nM of estradiol for ER; 10 μM of deoxycorticosterone for GR; 100 nM of dihydrotestosterone for AR; 500 nM of progesterone for PR; 10 μM of T3 for TR; 10 μM of all-trans-retinoic acid for RAR; and 10 μM of 9-cis-retinoic acid for RXR. The same amount of an aliquot of the mating culture was spread on both SD/-Leu/-Trp plates to select diploid strains bearing both plasmids and SD/-Leu/-Trp/-His/+3-AT plates to score the growth of the diploid cells that express the two interacting target proteins. The His3 positive colonies were further analyzed for β-galactosidase activity by liquid β-galactosidase activity measurement as essentially described in the protocol.
Yeast strains Y187 expressing the Gal4DB fusion to the nuclear receptors and CG1945expressing Gal4AD alone or Gal4AD-PNRC fusion protein were mated by co-culturing, and selected for the presence of both two-hybrid plasmids. The expression of interacting hybrid proteins in yeast diploids was analyzed to determine if there was induction of HIS3 expression as shown in FIG. 1A and LacZ expression as shown in FIGS. 1B and 1C. […] As shown in FIGS. 1A-C, PNRC also interacted specifically with all seven nuclear receptor HBDs, including ER, AR, GR, TR, PR, RAR and RXR, and these interactions were completely ligand-dependent. […] However, no interactions occurred either between PNRC and an irrelevant protein such as human lamin C protein or between nuclear receptors and Gal4activation domain alone.

T1 sequence (Q04752 whole entry, the tested form may be a part): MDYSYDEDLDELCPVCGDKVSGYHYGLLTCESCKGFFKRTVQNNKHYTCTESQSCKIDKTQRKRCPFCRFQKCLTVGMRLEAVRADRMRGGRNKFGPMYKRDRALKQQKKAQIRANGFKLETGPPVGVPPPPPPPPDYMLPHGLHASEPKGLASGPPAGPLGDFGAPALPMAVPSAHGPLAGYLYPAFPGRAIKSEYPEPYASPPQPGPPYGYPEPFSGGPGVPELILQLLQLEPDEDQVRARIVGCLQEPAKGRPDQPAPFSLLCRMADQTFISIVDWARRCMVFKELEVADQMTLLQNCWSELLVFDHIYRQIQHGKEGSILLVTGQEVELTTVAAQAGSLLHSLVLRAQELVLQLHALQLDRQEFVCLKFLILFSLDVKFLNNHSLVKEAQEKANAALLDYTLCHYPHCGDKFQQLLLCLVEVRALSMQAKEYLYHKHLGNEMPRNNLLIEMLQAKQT

In the case of “PNRC: proline-rich nuclear receptor co-regulatory protein, 327 aa, SEQ ID NO:8, nuclear receptor coactivator”, the “CAT activity relative to cells transfected with only CAT reporter plasmid” value [1] is reported as 5-6 fold and the “interaction with SF1” value [2] is reported as “interacted with orphan receptors SF1 and ERRα1 in the absence of any added activator or ligand”.
